Measurements published in US20250314643A1, “FLUORESCENT COMPLEXES COMPRISING TWO RHODAMINE DERIVATIVES AND A NUCLEIC ACID MOLECULE” (CENTRE NATIONAL DE LA RECHERCHE SCIENTIFIQUE, priority 2019, published 2025).

B1: SRB-2: parental RNA aptamer previously developed to interact with sulforhodamine B (nucleic acid)
chain: GGGAGACAGCUAGAGUACGGAACCUCGCUUCGGCGAUGAUGGACAGGUUCCGACACGAGCACAGUGUAC
modifications: listed as RNA, chemistry not given here
B2: o-Coral: light-up RNA aptamer, 4C10 derivative with 6-nucleotide long linker (nucleic acid)
chain: GGGAGACAGCUAGAGUACAGGAACCCCGCUUCGGCGGUGAUGGAGAGGCGCAAGGUUAACCGCCUCAGGUUCCGGUGACGGGGCCUCGCUUCGGCGAUGAUGGAGAGGCGCAAGGUUAACCGCCUCAGGUUCUGACACGAGCACAGUGUAC
modifications: fluorophore binding aptamers
notes: light-up RNA aptamer, 4C10 derivative with 6-nucleotide long linker
B3: 4C10: duplicated SRB-2 variant RNA aptamer displaying 6 point mutations (nucleic acid)
chain: AGAACCCCGCUUCGGCGGUGAUGGAGAGGCGCAAGGUUAACCGCCUCAGGUUCCNNNNNNNNNNNNNNNNNNNNNNNNNNNNNNNNNNNNNNNNNNNNNNNNNNNNNNNNNNNNGGGGCCUCGCUUCGGCGAUGAUGGAGAGGCGCAAGGUUAACCGCCUCAGGUUCU
modifications: fluorophore binding aptamers; (55)..(72) N represents A, U, G or C; (73)..(114) N represents A, U, G or C or is absent
notes: duplicated SRB-2 variant RNA aptamer displaying 6 point mutations

Key:
[1] = Fluorescence Correlation Spectroscopy (FCS) analysis of the fluoromodules; assay type: physicochemical
[2] = Affinity measurements (Kd, fluorescence titration of Gemini-561 with RNA); assay type: binding; details: for Kd: 40 mM potassium phosphate pH 7.5, 100 mM KCl, 1 mM MgCl2, 0.05% Tween 20, 100 nM (SRB-2) or 25 nM (4C10) Gemini-561
Description: The Kd value can be obtained by measuring the fluorescence intensity of the fluorophore in aqueous medium with increasing amount of the said nucleic acid. The plot of the fluorescence intensity versus the concentration of the said nucleic acid will provide the Kd value after fitting with the proper equation (example: Hill equation).
The fluorescence was measured on microplate reader (ex/em 580/620 nm, SpectraMax iD3, Molecular Devices).

[3] = Fluorescence measurement on purified RNA (Gemini-561 activation capacity); assay type: biochemical; details: 500 nM RNA, 50 nM Gemini-561, ex/em 560/600 nm
Description: FIG. 6A represents Gemini-561 activation capacity of the parental SRB-2 and the evolved 4C10 variant. 500 nM of RNAs were incubated with 50 nM of Gemini-561 and the fluorescence was measured at À ex/em=560/600 nm.
FIG. 7A represents the fluorogenic capacity of SRB-2 and its evolved forms 4C10 and o-Coral. 500 nM of RNAS were incubated With 50 nM of Gemini-561 and the fluorescence was measured at X ex/em=560/600 nm. The values are the mean of 3 independent experiments, each measurement being shown as an open circle. The error bars correspond to ±1 standard deviation.
FIG. 10B represents Contribution of the dimerization and 736 the mutations to o-Coral functionality. SRB-2 aptamer was used as scaffold either in its monomeric 737 (m) or dimeric (d) form containing o-Coral linker. Indicated mutations were then implemented and the 738 different constructs tested as above.
FIG. 10C represents the identification of interacting regions. […]
1 μM purified RNA was heated for 1 min at 90° C. and cooled at 4° C. for 1 min. […] The mixture was then incubated for 10 min at 25° C. prior to measuring the fluorescence at 25° C. 011 a real-time thermocycler (ex/em 575/602 nm, MX 3005P, Agilent) or on microplate reader (ex/em 560/600 nm, SpectraMax iD3, Molecular Devices).

Molecule | Kd [2] [nM] | capacity to turn on Gemini-561 fluorescence [3] | other results
CN(C)c1ccc2c(-c3ccccc3C(=O)[O-])c3ccc(N(C)C)cc3[o+]c2c1 [Tetramethylrhodamine] |  |  | Size (hydrodynamic diameter of fluorescent specie) ([1]; fluorogen 200 nM, aptamer 1 μM): 1 nm; τcorr (correlation time) ([1]; fluorogen 200 nM, aptamer 1 μM): 0.032 ms; Brightness with respect to one molecule of the standard ([1]; standard tetramethylrhodamine for o-Coral (532 nm excitation), fluorescein for Broccoli and Corn): 1
B1 | ~441 | poor | 
B2 |  |  | fluorogenicity and affinity for Gemini-561 compared with 4C10 ([2]; 6-nucleotide linker derivative of 4C10): conserved both fluorogenicity and affinity
B3 | ~73 | an order of magnitude more fluorescent | 
